Test results: patent US20210261685A1 (Alector, published 2021)

Key:
[1] = molecular target: T1, human MerTK endogenously expressed on cells (SK-MEL-5 cells; human macrophages) (human, UniProt Q12866 21-999); experiment: cell-based or functional assay
T1 sequence: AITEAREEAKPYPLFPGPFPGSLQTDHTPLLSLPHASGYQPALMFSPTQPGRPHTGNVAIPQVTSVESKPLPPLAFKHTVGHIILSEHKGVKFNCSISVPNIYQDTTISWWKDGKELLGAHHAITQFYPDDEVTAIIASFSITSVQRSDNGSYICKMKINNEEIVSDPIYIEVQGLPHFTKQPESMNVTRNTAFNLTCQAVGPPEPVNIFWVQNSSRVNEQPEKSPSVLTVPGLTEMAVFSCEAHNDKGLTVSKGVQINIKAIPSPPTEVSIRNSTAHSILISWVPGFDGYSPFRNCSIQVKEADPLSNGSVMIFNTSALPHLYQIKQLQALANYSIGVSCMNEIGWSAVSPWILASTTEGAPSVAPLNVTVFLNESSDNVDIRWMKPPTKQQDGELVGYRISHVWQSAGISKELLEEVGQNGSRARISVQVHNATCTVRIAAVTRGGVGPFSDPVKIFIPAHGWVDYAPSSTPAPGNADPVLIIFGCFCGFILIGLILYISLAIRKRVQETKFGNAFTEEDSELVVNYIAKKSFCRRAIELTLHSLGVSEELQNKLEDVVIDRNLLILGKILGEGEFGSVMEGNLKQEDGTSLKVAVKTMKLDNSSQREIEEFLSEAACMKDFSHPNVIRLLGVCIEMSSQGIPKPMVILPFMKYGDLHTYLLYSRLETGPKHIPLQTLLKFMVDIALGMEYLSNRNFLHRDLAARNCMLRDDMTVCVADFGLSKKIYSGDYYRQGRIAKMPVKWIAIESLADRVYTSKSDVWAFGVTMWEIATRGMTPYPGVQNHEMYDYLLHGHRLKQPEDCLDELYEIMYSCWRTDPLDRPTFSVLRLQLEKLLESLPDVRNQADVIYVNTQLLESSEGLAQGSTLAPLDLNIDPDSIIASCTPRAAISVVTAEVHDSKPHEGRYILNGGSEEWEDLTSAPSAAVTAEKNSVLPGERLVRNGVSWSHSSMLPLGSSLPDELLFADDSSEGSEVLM

[2] = molecular target: T2, Recombinant human MerTK human Fc Chimera protein (R&D systems, Cat #391-MR-100) (human, UniProt Q12866 26-499, limits assumed); experiment: competition ELISA, His-ProS on captured MerTK-Fc
T2 construct: Bought; also called recombinant human MerTK protein; MerTK-Fc
T2 sequence: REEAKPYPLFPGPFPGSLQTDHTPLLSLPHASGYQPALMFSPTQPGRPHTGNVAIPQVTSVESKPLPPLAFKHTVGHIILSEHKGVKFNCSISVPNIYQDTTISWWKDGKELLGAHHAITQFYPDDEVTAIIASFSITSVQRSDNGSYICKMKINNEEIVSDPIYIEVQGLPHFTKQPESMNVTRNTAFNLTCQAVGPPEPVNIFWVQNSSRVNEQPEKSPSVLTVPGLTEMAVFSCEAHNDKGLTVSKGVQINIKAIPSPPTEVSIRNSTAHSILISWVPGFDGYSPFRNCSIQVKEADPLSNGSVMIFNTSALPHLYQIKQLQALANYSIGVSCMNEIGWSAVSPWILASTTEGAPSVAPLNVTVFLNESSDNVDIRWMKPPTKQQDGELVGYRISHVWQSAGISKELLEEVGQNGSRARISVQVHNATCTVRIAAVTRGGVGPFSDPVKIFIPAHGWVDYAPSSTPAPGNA
Description: Rabbit anti-human IgG polyclonal antibody (Jackson ImmunoResearch, Cat #309-005-008) was captured to a high-protein binding plate at 2 μg/ml 4° C. overnight. After washing with 0.05% Tween20 in PBS three times, 5% BSA in PBS was added for 1 hour. Recombinant human MerTK human Fc Chimera protein (R&D systems, Cat #391-MR-100) was added at 2 μg/ml for 1 hour and the plates were then washed. Anti-MerTK antibodies were titrated to final concentration range of between 66.6 nM to 4 pM and then 40 μl of serially diluted antibody and 40 μl of His tag-conjugated recombinant Gas6 protein (R&D systems, Cat #885-GSB-050) at 3 μg/ml or His tag-conjugated recombinant ProS protein (R&D systems, Cat #9489-PS-100) at 20 μg/ml. After a further incubation for 1 hour, plates were washed and incubated for 1 hour with HRP-conjugated anti-6×His tag antibody (Abcam, Cat #ab1187). Plates were then washed and an HRP substrate (TMB) was used to develop the plates. After sufficient color change was observed, the reaction was stopped by adding 50 μl 2N H₂SO₄ and the OD was measured using a spectrophotometer (BioTek).
From these experiments, IC50 values [nM] were determined using OD450 values obtained from the dose-response curves analyzed with Prism software. Table 14 and Table 15 show IC50 values determined for anti-MerTK antibody blocking of Gas6 ligand binding and ProS ligand binding to MerTK. […] Dashes indicate lack of significant blocking; “n.a.” indicates data not available.

[3] = molecular target: T3, cyno MerTK extracellular domain (ECD), recombinant (cynomolgus monkey, UniProt Q12866 21-505 (human entry)); experiment: SPR, Carterra LSA
T3 construct: also called cynomolgus MerTK; not shown: polyHis tag or TEVS/Thrombin/murine IgG2a Fc tag
T3 chain: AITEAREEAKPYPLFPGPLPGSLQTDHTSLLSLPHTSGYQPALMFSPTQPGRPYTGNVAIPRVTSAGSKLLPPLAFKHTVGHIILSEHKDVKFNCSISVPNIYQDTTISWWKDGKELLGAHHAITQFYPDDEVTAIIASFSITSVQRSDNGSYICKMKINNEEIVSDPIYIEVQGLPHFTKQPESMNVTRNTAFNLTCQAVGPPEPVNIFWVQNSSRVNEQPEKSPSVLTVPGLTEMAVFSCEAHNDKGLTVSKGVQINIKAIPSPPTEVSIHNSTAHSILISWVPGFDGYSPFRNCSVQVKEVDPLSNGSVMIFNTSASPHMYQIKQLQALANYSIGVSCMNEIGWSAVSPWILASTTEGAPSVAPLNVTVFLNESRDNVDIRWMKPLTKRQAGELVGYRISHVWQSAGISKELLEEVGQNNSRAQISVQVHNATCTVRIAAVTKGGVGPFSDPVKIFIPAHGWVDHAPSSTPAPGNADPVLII

Gas6-mediated pAKT activity, average IC50, human M2c macrophages [1]: 1.67 nM
IC50 [2]: 7.84 nM
binding result [3]: binds
B1: MTK-09 (antibody, human IgG1, V domains shown)
VH: QVQLQQSGAELVRPGASVKISCKAFGYTFTNHHIKWVKQRPGQGLDWIGYIDPYNDYTTYNQNFKGKATLTVDKSSSTAYMELSSLTSEDSAVYYCARRAYDGYYVDWYFDVWGAGTTVTVSS
VL: DIVMTQSHKFMSTSVGDRVSITCKASQDVTTSVAWYHQKPGQSPELLIYSASYRYTGVPDRFTGSGSGTDFTFTISSVQAEDLAIYYCQQHYSTPLTFGSGTKLQLK
